Laboratory results from patent publication CN113735969A (INST MILITARY MEDICINE ACADEMY MILITARY SCIENCES PLA, dated 2021).

Experiments:
[1] = biological target: SARS-CoV-2 Alpha株病毒的S蛋白 (SARS-CoV-2 Alpha株 (B.1.1.7)); assay: cell-based or functional assay
[2] = biological target: SARS-CoV-2 Gamma株病毒的S蛋白 (SARS-CoV-2 Gamma株 (P.1)); assay: cell-based or functional assay
[3] = biological target: SARS-CoV-2 Beta株病毒的S蛋白 (SARS-CoV-2 Beta株 (B.1.351)); assay: cell-based or functional assay
[4] = biological target: SARS-CoV-2 Delta株病毒的S蛋白 (SARS-CoV-2 Delta株 (B.1.617.2)); assay: cell-based or functional assay
[5] = biological target: SARS-CoV-2 WT S-ECD蛋白 (SARS-CoV-2, UniProt P0DTC2 14-1213)
[6] = biological target: SARS-CoV-2 Delta株S-ECD蛋白 (SARS-CoV-2 Delta株 (B.1.617.2))
[7] = biological target: SARS-CoV-2 Beta株S-ECD蛋白 (SARS-CoV-2 Beta株 (B.1.351))
[8] = biological target: SARS-CoV-2 Alpha株S-ECD蛋白 (SARS-CoV-2 Alpha株 (B.1.1.7))
[9] = biological target: SARS-CoV-2 Gamma株S-ECD蛋白 (SARS-CoV-2 Gamma株 (P.1))

B1: 全人源抗SARS-CoV-2单克隆抗体ZWD12 (antibody, V domains shown)
VH: EVQLVESGGGLVQPGGTLRLSCVASGFSFSNYWMSWVRQAPGKGLEWVANIKQDGSETHYVDSVKGRFTISRDNAKNSLYLQMNSLRADDTAVYFCVKDRTDWELIRGYFGHWGQGTQITVSS
VL: DIVMTQTPSSLSLSPGDRATLSCRASENIINYLAWYQQRPGQSPRLLIYDASNRATGIPARFSGSGSGTDFTLTISSLEPEDFAVYYCQQRIIWPPYTFGQGTKVDIKR
假病毒中和 EC50 (luciferase, HEK293T cells) [1]: 4.11 ng/mL
假病毒中和 EC50 (luciferase, HEK293T cells) [2]: 3.83 ng/mL
假病毒中和 EC50 (luciferase, HEK293T cells) [3]: 3.56 ng/mL
真病毒中和 EC50 (Vero E6 cells, crystal violet) [3]: 69 ng/mL
假病毒中和 EC50 (luciferase, HEK293T cells) [4]: 7.29 ng/mL
真病毒中和 EC50 (Vero E6 cells, crystal violet) [4]: 79 ng/mL
Kd [5]: 0.895 nM
koff [5]: 0.000121 s⁻¹
kon [5]: 135000 M⁻¹ s⁻¹
Kd [6]: 1.91 nM
koff [6]: 0.000133 s⁻¹
kon [6]: 69600 M⁻¹ s⁻¹
Kd [7]: 0.991 nM
koff [7]: 0.000102 s⁻¹
kon [7]: 103000 M⁻¹ s⁻¹
Kd [8]: 0.826 nM
koff [8]: 0.000111 s⁻¹
kon [8]: 134000 M⁻¹ s⁻¹
Kd [9]: 1.42 nM
koff [9]: 0.000146 s⁻¹
kon [9]: 102000 M⁻¹ s⁻¹
